Reference: patent publication US7741051B2, “Soluble ectodomain fragments of MET and uses thereof” (Medical Research Council, priority 2003, dated 2010)

B1: 25-519GH: dimeric MET aa 25-519 fused to human γ1 Fc, hexa-histidine tagged (protein)
chain: ECKEALAKSEMNVNMKYQLPNFTAETPIQNVILHEHHIFLGATNYIYVLNEEDLQKVAEYKTGPVLEHPDCFPCQDCSSKANLSGGVWKDNINMALVVDTYYDDQLISCGSVNRGTCQRHVFPHNHTADIQSEVHCIFSPQIEEPSQCPDCVVSALGAKVLSSVKDRFINFFVGNTINSSYFPDHPLHSISVRRLKETKDGFMFLTDQSYIDVLPEFRDSYPIKYVHAFESNNFIYFLTVQRETLDAQTFHTRIIRFCSINSGLHSYMEMPLECILTEKRKKR
chain (part 1 of 2): STKKEVFNILQAAYVSKPGAQLARQIGASLNDDILFGVFAQSKPDSAEPMDRSAMCAFPIKYVNDFFNKIVNKNNVRCLQHFYGPNHEHCFNRTLLRNSSGCEARRDEYRTEFTTALQRVDLFMGQFSEVLLTSISTFIKGDLTIANLGTSEGRFMQVVVSRSGPSTPHVNFLLDSHPVSPEVIVEHTLNQNGYTLVITGKKITKIPLNGLG
chain (part 2 of 2): HHHHHH
modifications: left off: a dimerising Fc or GST
B2: 25-567GH: dimeric MET aa 25-567 fused to human γ1 Fc, hexa-histidine tagged (protein)
chain: B1 chain
chain (part 1 of 2): STKKEVFNILQAAYVSKPGAQLARQIGASLNDDILFGVFAQSKPDSAEPMDRSAMCAFPIKYVNDFFNKIVNKNNVRCLQHFYGPNHEHCFNRTLLRNSSGCEARRDEYRTEFTTALQRVDLFMGQFSEVLLTSISTFIKGDLTIANLGTSEGRFMQVVVSRSGPSTPHVNFLLDSHPVSPEVIVEHTLNQNGYTLVITGKKITKIPLNGLGCRHFQSCSQCLSAPPFVQCGWCHDKCVRSEECLSGTWTQQICLPAIYK
chain (part 2 of 2): HHHHHH
modifications: left off: a dimerising Fc or GST
B3: MET 567-932GH (Fc fusion)
chain (part 1 of 2): KVFPNSAPLEGGTRLTICGWDFGFRRNNKFDLKKTRVLLGNESCTLTLSESTMNTLKCTVGPAMNKHFNMSIIISNGHGTTQYSTFSYVDPVITSISPKYGPMAGGTLLTLTGNYLNSGNSRHISIGGKTCTLKSVSNSILECYTPAQTISTEFAVKLKIDLANRETSIFSYREDPIVYEIHPTKSFISGGSTITGVGKNLNSVSVPRMVINVHEAGRNFTVACQHRSNSEIICCTTPSLQQLNLQLPLKTKAFFMLDGILSKYFDLIYVHNPVFKPFEKPVMISMGNENVLEIKGNDIDPEAVKGEVLKVGNKSCENIHLHSEAVLCTVPNDLLKLNSELNIEWKQAISSTVLGKVIVQPDQNFT
chain (part 2 of 2): HHHHHH
notes: IG leader left out; Dimer through the Fc; also called MET567-928GH; not shown: hinge, CH2 and CH3 domains of the human gamma1 antibody constant region
B4: MET567-928GH: dimeric C-terminal part of the MET ectodomain fused to human γ1 Fc, hexa-histidine tagged (protein)
chain (part 1 of 2): B3 chain (part 1 of 2)
chain (part 2 of 2): HHHHHH
modifications: left off: a dimerising Fc or GST

Key:
[1] = Binding of dimeric MET constructs to HiTrap Heparin HP column, NaCl gradient elution; settings: 50 mM phosphate, 150 mM NaCl, pH 7.4, linear NaCl gradient
Procedure: (§1) Immulon B 96 well plates were coated with recombinant, single chain (R494E) or two chain HGF/SF in 50 mM phosphate buffer, pH 6.0. Wells were blocked, incubated with dimeric MET constructs at the concentrations shown in FIGS. 2a and b and bound MET was detected with HRP-conjugated rabbit anti-human IgG (Dako P0214). For heparin binding, dimeric MET constructs were loaded on a HiTrap Heparin HP column (Amersham Biosciences 17-0406-01) in 50 mM phosphate, 150 mM NaCl, pH 7.4 and eluted with a linear gradient of NaCl as shown in FIGS. 2c and d.

[2] = tested on: single chain (R494E) or two chain HGF/SF; test: Solid phase binding of dimeric MET deletions to HGF/SF; settings: plates coated with single chain (R494E) or two chain HGF/SF; bound MET detected with HRP anti-human IgG
Chain of single chain (R494E) or two chain HGF/SF (P14210 32-493 limits assumed, stated change not applied): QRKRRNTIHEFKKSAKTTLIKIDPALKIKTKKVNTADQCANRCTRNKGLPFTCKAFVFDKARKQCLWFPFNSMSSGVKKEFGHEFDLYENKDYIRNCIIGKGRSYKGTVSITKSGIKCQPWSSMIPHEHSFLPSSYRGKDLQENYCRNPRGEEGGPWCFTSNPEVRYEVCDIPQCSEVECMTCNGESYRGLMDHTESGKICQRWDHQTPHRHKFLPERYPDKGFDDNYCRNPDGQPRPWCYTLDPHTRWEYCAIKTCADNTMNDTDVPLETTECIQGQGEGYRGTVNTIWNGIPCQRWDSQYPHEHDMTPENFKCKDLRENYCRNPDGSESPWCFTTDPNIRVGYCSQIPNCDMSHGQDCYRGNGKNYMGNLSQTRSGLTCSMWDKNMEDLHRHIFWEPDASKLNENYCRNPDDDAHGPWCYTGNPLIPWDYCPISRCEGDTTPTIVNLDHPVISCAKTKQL
Procedure: as §1

[3] = target: T1, recombinant two chain HGF/SF (human, UniProt P14210 32-494; P14210 495-728); test: solid phase assay, HGF/SF coated, bound MET detected with HRP anti-human IgG
T1 construct: also called mature (two-chain) HGF/SF
T1 sequence (P14210 32-494 limits assumed, chain 1 of 2): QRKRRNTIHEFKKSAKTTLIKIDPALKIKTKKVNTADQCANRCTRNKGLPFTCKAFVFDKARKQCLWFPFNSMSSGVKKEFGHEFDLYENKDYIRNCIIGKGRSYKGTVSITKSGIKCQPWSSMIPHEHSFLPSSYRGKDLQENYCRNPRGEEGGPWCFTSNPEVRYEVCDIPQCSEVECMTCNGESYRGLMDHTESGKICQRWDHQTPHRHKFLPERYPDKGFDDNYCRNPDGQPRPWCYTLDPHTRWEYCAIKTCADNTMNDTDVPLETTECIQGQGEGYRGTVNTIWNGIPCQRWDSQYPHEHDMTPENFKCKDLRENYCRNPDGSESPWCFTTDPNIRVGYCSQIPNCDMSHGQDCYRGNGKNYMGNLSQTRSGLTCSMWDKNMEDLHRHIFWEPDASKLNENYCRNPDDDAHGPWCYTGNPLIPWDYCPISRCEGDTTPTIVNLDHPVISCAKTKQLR
T1 sequence (P14210 495-728 limits assumed, chain 2 of 2): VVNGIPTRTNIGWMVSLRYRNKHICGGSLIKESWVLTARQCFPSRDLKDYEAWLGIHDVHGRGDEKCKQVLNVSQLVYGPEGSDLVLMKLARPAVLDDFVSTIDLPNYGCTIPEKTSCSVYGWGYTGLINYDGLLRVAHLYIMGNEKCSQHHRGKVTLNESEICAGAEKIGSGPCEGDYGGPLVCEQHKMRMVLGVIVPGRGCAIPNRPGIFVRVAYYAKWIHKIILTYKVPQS
Procedure: as §1

[4] = target: T2, recombinant single chain HGF/SF (R494E) (human, UniProt P14210 32-728); test: as above
T2 construct: also called single chain (R494E) HGF/SF
T2 sequence (P14210 32-728 R494E limits assumed): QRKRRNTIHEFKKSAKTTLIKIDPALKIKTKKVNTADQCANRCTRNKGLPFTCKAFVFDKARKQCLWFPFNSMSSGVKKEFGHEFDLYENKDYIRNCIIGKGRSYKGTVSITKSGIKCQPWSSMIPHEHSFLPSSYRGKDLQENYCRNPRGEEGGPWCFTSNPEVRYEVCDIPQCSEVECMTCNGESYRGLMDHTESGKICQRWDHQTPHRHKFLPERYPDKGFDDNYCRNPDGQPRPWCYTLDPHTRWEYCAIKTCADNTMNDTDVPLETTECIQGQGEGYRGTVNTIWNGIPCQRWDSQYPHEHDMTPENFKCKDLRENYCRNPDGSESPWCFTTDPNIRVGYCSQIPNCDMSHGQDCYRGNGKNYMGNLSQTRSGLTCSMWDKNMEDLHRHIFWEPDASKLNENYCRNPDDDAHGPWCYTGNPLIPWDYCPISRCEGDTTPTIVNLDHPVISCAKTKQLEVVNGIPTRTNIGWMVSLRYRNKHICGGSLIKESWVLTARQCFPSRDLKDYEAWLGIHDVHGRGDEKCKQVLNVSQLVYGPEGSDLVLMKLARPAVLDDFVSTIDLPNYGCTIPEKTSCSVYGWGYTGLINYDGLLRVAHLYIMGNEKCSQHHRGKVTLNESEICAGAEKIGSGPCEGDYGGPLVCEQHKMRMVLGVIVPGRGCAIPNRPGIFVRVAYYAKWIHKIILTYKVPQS
Procedure: as §1

Molecule | Binding to immobilised heparin [1] | Binding to HGF/SF [2] | further results
HGF/SF: hepatocyte growth factor/scatter factor, ligand of MET | strong heparin binding | – | –
B1 | indistinguishable from full length MET | readily measurable | Binding to immobilised heparin ([1]; listed as MET 25-519GH): showed binding
B2 | – | readily measurable | –
B3 | – | – | binding result [3]: no binding; binding result [4]: no binding
B4 | no binding | no binding | Binding to immobilised heparin ([1]; listed as MET 567-928GH): none
